Results from article PMC5549770, “Human cytomegalovirus IE1 downregulates Hes1 in neural progenitor cells as a potential E3 ubiquitin ligase” (PLoS Pathogens, 2017).

T1: His-IE1 (pET-IE1) (human cytomegalovirus (Towne strain), UniProt P03169 1-491)
T1 construct: HCMV IE1 (UL123), wild type, cloned into pET28a; 491 amino acids (Towne); also called purified IE1; source: E. coli BL21, purified (cOmplete His-Tag Purification Resin); not shown: His6, N-terminal, kept
T1 sequence: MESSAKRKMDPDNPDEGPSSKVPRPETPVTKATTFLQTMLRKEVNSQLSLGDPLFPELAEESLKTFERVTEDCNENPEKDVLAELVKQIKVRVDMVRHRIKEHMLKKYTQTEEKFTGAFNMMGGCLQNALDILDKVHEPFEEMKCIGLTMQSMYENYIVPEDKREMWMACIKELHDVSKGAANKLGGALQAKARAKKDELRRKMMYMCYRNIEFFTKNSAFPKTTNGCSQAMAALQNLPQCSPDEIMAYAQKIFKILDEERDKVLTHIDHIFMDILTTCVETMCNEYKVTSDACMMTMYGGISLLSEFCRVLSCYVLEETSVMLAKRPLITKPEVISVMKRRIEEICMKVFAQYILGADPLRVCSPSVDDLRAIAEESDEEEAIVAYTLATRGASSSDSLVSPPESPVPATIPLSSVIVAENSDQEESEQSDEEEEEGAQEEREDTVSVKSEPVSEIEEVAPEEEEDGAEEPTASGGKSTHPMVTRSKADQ

B1: His-Sp100A (pET-Sp100A) (natural protein)
chain: not shown
notes: human Sp100A (isoform A of the nuclear autoantigen Sp-100) cloned into pET28a; also called purified Sp100A; source: E. coli BL21, purified (cOmplete His-Tag Purification Resin); not shown: His6, N-terminal, kept
B2: His-Hes1 (pET-Hes1) (natural protein, human, UniProt Q14469 1-280, looked up)
chain: MPADIMEKNSSSPVAATPASVNTTPDKPKTASEHRKSSKPIMEKRRRARINESLSQLKTLILDALKKDSSRHSKLEKADILEMTVKHLRNLQRAQMTAALSTDPSVLGKYRAGFSECMNEVTRFLSTCEGVNTEVRTRLLGHLANCMTQINAMTYPGQPHPALQAPPPPPPGPGGPQHAPFAPPPPLVPIPGGAAPPPGGAPCKLGSQAGEAAKVFGGFQVVPAPDGQFAFLIPNGAFAHSGPVIPVYTSNSGTSVGPNAVSPSSGPSLTADSMWRPWRN
notes: human Hes1 cloned into pET28a; also called purified Hes1; source: E. coli BL21, purified (cOmplete His-Tag Purification Resin); not shown: His6, N-terminal, kept

Assays:
His-IE1 (pET-IE1) [1] = target: T1, His-IE1 (pET-IE1); experiment: pull-down; purified His-Sp100A mixed with Ubc5a in the presence of purified His-IE1; Sp100A- or Ubc5a-directed IP, IB; Buffer A, 4°C; conditions: both partners purified
His-IE1 (pET-IE1) [2] = target: T1, His-IE1 (pET-IE1); experiment: pull-down; in vitro pull-down: 1μg of each purified His-tagged protein (His-IE1 or His-Δ451–475 with His-Hes1) mixed in 300μl Buffer A (50mM NaH2PO4, 300mM NaCl, pH 8.0), antibody overnight at 4°C, protein A+G agarose; conditions: both partners purified

| Binder | binding result (His-IE1 (pET-IE1) [1]) | binding result (His-IE1 (pET-IE1) [2]) |
| --- | --- | --- |
| B1 | binds | – |
| B2 | – | binds |
